Measurements reported in PMC4931344, “The FNIP co-chaperones decelerate the Hsp90 chaperone cycle and enhance drug binding” (Nature Communications, 2016).

What was measured:
[1] = molecular target: FNIP1-D–His6 labelled with Texas Red Maleimide (UniProt Q8TF40); assay: fluorescence polarisation; fluorescence anisotropy; 1 μM Texas Red-labelled FNIP1-D, Hsp90α titrated; 50 mM Tris pH 7.2, 150 mM NaCl, 1 mM TCEP, 4 mM MgCl2, with or without 1 mM ATP, ADP or AMPPNP; single-site binding equation
[2] = molecular target: T1, FLAG–FNIP1 (bacterially expressed and purified) (UniProt Q8TF40 1-1166); assay: pull-down; His6-tagged protein bound to Ni-NTA agarose, incubated with 10 ng pure FLAG–FNIP1; immunoblot; conditions: both partners purified
T1 construct: FNIP1; bacterial expression from pRSET-A; also called recombinant FNIP1; source: bacterially expressed and purified (a small amount)
T1 sequence (looked up): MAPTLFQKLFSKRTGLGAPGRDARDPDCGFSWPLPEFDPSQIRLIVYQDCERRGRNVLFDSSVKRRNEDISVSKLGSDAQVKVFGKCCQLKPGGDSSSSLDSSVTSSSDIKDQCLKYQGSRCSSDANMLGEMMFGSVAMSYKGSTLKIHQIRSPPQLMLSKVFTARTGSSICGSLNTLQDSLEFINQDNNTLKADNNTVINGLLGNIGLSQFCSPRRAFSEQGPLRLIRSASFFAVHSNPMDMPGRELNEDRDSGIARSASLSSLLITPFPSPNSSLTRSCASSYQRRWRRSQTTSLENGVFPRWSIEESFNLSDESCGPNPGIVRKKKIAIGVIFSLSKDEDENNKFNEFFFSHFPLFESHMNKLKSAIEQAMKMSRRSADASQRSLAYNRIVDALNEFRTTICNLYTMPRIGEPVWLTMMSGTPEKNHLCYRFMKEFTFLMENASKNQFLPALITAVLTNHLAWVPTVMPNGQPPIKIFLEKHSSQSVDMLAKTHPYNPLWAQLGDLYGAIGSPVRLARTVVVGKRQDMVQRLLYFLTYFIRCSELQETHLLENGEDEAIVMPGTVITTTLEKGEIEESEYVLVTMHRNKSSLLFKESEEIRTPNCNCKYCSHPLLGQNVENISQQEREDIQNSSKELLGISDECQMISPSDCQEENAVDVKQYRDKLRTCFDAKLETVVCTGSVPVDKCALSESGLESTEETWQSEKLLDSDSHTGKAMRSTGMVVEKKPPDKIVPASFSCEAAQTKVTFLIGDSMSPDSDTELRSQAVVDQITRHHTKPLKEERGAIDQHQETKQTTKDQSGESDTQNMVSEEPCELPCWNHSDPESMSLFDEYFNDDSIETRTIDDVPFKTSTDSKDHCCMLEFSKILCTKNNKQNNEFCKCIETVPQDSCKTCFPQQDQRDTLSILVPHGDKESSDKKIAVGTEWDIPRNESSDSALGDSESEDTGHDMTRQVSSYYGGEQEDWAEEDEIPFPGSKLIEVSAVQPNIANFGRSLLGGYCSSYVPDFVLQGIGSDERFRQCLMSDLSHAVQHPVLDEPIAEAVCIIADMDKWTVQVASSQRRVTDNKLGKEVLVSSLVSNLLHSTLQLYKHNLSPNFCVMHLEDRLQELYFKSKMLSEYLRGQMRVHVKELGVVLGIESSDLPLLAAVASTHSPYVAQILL

[3] = molecular target: Hsp90α–FLAG full-length (wild type) (human) (UniProt P07900)

## Hsp90α–His6 (from UniProt P07900 1-732) (natural protein)
[1]
  Kd: 1300 nM

B1: FLCN–His6 (natural protein, UniProt Q8NFG4 1-579, looked up)
chain: MNAIVALCHFCELHGPRTLFCTEVLHAPLPQGDGNEDSPGQGEQAEEEEGGIQMNSRMRAHSPAEGASVESSSPGPKKSDMCEGCRSLAAGHPGYISHDKETSIKYVSHQHPSHPQLFSIVRQACVRSLSCEVCPGREGPIFFGDEQHGFVFSHTFFIKDSLARGFQRWYSIITIMMDRIYLINSWPFLLGKVRGIIDELQGKALKVFEAEQFGCPQRAQRMNTAFTPFLHQRNGNAARSLTSLTSDDNLWACLHTSFAWLLKACGSRLTEKLLEGAPTEDTLVQMEKLADLEEESESWDNSEAEEEEKAPVLPESTEGRELTQGPAESSSLSGCGSWQPRKLPVFKSLRHMRQVLGAPSFRMLAWHVLMGNQVIWKSRDVDLVQSAFEVLRTMLPVGCVRIIPYSSQYEEAYRCNFLGLSPHVQIPPHVLSSEFAVIVEVHAAARSTLHPVGCEDDQSLSKYEFVVTSGSPVAADRVGPTILNKIEAALTNQNLSVDVVDQCLVCLKEEWMNKVKVLFKFTKVDSRPKEDTQKLLSILGASEEDNVKLLKFWMTGLSKTYKSHLMSTVRSPTASESRN
notes: folliculin (FLCN), bacterially expressed; The name puts His6 behind the protein; source: bacterially expressed and purified; not shown: His6, N-terminal, kept
[2]
  binding result: binds

B2: HA–FNIP1 (natural protein)
chain: T1 sequence (looked up)
[3]
  inhibition of the in vitro ATPase activity of isolated Hsp90α (PiPer Phosphate Assay; Hsp90α 291.5 nM) by 200 nM FNIP1 (189.8 nM in the results): 50 fold

B3: HA–FNIP2 (natural protein)
chain: MAPTLLQKLFNKRGSSGSSAAASAQGRAPKEGPAFSWSCSEFDLNEIRLIVYQDCDRRGRQVLFDSKAVQKIEEVTAQKTEDVPIKISAKCCQGSSSVSSSSSSSISSHSSSGGSSHHAKEQLPKYQYTRPASDVNMLGEMMFGSVAMSYKGSTLKIHYIRSPPQLMISKVFSARMGSFCGSTNNLQDSFEYINQDPNLGKLNTNQNSLGPCRTGSNLAHSTPVDMPSRGQNEDRDSGIARSASLSSLLITPFPSPSSSTSSSSSYQRRWLRSQTTSLENGIIPRRSTDETFSLAEETCSSNPAMVRRKKIAISIIFSLCEKEEAQRNFQDFFFSHFPLFESHMNRLKSAIEKAMISCRKIAESSLRVQFYVSRLMEALGEFRGTIWNLYSVPRIAEPVWLTMMSGTLEKNQLCQRFLKEFTLLIEQINKNQFFAALLTAVLTYHLAWVPTVMPVDHPPIKAFSEKRTSQSVNMLAKTHPYNPLWAQLGDLYGAIGSPVRLTRTVVVGKQKDLVQRILYVLTYFLRCSELQENQLTWSGNHGEGDQVLNGSKIITALEKGEVEESEYVVITVRNEPALVPPILPPTAAERHNPWPTGFPECPEGTDSRDLGLKPDKEANRRPEQGSEACSAGCLGPASDASWKPQNAFCGDEKNKEAPQDGSSRLPSCEVLGAGMKMDQQAVCELLKVEMPTRLPDRSVAWPCPDRHLREKPSLEKVTFQIGSFASPESDFESRMKKMEERVKACGPSLEASEAADVAQDPQVSRSPFKPGFQENVCCPQNRLSEGDEGESDKGFAEDRGSRNDMAADIAGQLSHAADLGTASHGAGGTGGRRLEATRGLYVKAAEGPVLEPVAPRCVQRGPGLVAGANIPCGDDNKKANFRTEGDIPRNESSDSALGDSDDEACASAMLDLGHGGDRTGGSLEVELPLPRSQSISTQNVRNFGRSLLAGYCPTYMPDLVLHGTGSDEKLKQCLVADLVHTVHHPVLDEPIAEAVCIIADTDKWSVQVATSQRKVTDNMKLGQDVLVSSQVSSLLQSILQLYKLHLPADFCIMHLEDRLQEMYLKSKMLSEYLRGHTRVHVKELGVVLGIESNDLPLLTAIASTHSPYVAQILL
[3]
  inhibition of the in vitro ATPase activity of isolated Hsp90α (PiPer Phosphate Assay; Hsp90α 291.5 nM) by 1.6 μM FNIP2: 8 fold
